Results published in a protein production outcome set (Wang et al. 2014).

Test: label from the status in PepcDB records

Sequence | protein production
MPKSPHKLFKANSFWKENNLILREIKHFRKIAILAVIFSFLAASFEGVSIGFLLSFLQKLTSPNDPIQTGISWVDMILAADAWPIPPIYRISLLILLSTWMRATFNYFGGVYTESAQLNLADRLHKQIFEQLQALRLSYFAQTRSGELINTITTEIERIKQGFSGLAFVLTRIMTVCVYFVVMFSISWQLSIISVLIFLLLAVGLSTLNKRVRETSFGISHANAQFTAVAVEFINGIRTIQAFGTQEFERQRFYKASTNQLNAAIKVVLAWTLVKPIAEGIATTVLISLIVISFATFTLPVASLLTFFFVLVRVIPNIQDINGTVAFLSTLQGSSENIKNILQTNNKPYLKNGKLHFQGLKRSIDLVSVDFGYTADNLVLNNITLTIERGKTTALVGASGAGKTTLADLIPRFYDPTEGQILVDGLDVQYFEINSLRRKMAVVSQDTFIFNTSIRDNIAYGTSGASEAEIREVARLANALQFIEEMPEGFDTKLGDRGVRLSGGQRQRIAIARALLRDPEILILDEATSALDSVSERLIQESIEKLSVGRTVIAIAHRLSTIAKADKVVVMEQGRIVEQGNYQELLEQRGKLWKYHQMQHESGQTNS | failed
MENIQDSVSEYTKDSAQKIDTDALYHEQMLKALYAGFGIRFCAFIIDLLIIFGVHSLILKPIYHFTNLDSAKLWIDYFSVGHLLDALVFYLYFVLMTKYFKQTLGKMICNIRVERMDRQQLTWTDVLFREWIGRIISGVFANLPYLVTIFTKKHRGIHDYFADTVVIKNKFEKFFYLK | failed
HNESIRYLIVPGWQGSPDDHWQAHWQNSLPNSTRVEQADWLKPRREDWVGELQRTIAAQSTPVILIAHSLGCVTVAHWAQLAPLETLRQVQGALLVAPADVERPNCPPALRNFAPIPADLLPFPTQVVSSDNDPAVSSQRAIEMARHWGAELGFLSQAGHINVKSGHQRWEQGFAYLYRLQNRLEQ | failed
MFIERLVALLLLFAGEFAYLRIADRFNIIDRPNQRSSHKKNVLRGGGIIFLLGVWMYAFLNTTGYPLFIGGMTLIASVAFIDDVCSLSPRFRFFVQFVAMFLLLQEAGMLVENKVWFLLPTMILGVCIINAYNFMDGINGMTGAFSLMVLFTFWLLNREMAFIDATLIELLMISALVFCFFNFRNQAICFAGDVGSVGMAYCVIFILLKLVLFTGNVTYLLFLVVYGIDTVLTIFHRLLLHENLLQPHRKHLFQLLANEGGHSHVTVSITYVLLQLAISLGYIYLPIDKWLYSVIVTIGLVTAYLIIERKLYPKHKEYLKSLSCAVMDEGYSEKCLRNEN | failed
MAEKLLHTAESDAGIGSWVLHMESGRLEWSQAVHDIFGTDSATFDATEDAYFQRVHPDDRARVRRELDRHVLGDRPFDVEYRIVRPDGQVRELLERNHIQRQASGQVDHLWGTVIDMTEHKQLKRQLQLSQLAVEHCSEGIAIADEGLDWLYVNPALARMGGLTMADPSQLSGLFMAPGVEARLEREALRELLDASGAWQGELLLARRGAAPLPVLASATRLRDEDGRLLSVWVVSDISGMKESERRLHALAFFDGLTGLANRALFGERLRWHLQNEPAGGRLAILFLDLNGFKQVNDLLGHEAGDQVLREVARRLQAGCRPGELAARWGGDEFAVLLPGVADDAVLAARLRELREAARAERWGGGRWLRVSASLGAAVYPESAEDAERLIQLADRAMYRAKSEGGGQVWLHDGGGLRTLAGADCGA | failed
MSLETKTPNDAKNQVQTHERMKTSSEHVTPLDFNYPIHIVQAPQNHHVVGILTPRIQVSDNLKPYIDKFQDALINQIQTIFEKRGYQVLRFQDEKALNAQDKRKIFSVLDLKGWVGILEDLKMNLKDPNNPNLDTLVDQSSGSVWFNFYEPESNRVVHDFAVEVGTFQAMTYTYKHNNSGGLNSSNSIIHEYLEKNKEDAIHKILNRMYAVVMKKAVTELTKENIDKYREAIDRMKGFKSSMPQKKEGHHHHHH | not failed
MCGAWFFGARVFEFFTSLFESMKVLKLLPNFLTILRIVLSLFLLFLLLNTRTYFSFLTPFQTNMISSLVFLFAALTDLLDGYIARSYKAKSRFGEIFDPLADKILILSAFLGLVYLDRVNAWIPFVILGREFFISGLRVLAANEKKDIPVNALGKYKTVSQVVAIGALLADVTYSYALVAIAVFLTLYSGIDYTIKYYKS | failed
MANVVILGGNGYLGRNITKVWLEIDPKLEFYIVSRSGQNKLVDKRIHNIKVDVTNEKDVAKKRPDTFDYIIDCIGVPEKDPEKFKQINDLPAETMLALARKQKDPVMGFISGRLGPKTFIDGKAQILKELQDSSIKVASVSPNVVYGNGRKDSMTKMVPFLKFMDLFSAKMNPDDVVKDLINQMIKLHNS | failed
MRQPFQVLVIPFIKTEANYQFGVLHRTDADVWQFVAGGGEDEEAISETAKRESIEELNLDVDVKMYSLDSHASIPNFHFSFNKPYVVPEYCFAIDLTSCSYQVTLSLEHSELRWVSYESAIQLLEWDSNKTALYELNERLKNNDMKAM | not failed
